The results in this text go back to patent US20200407449A1.

This experiment has as its target T1, mouse VISTA-Fc (mouse) (UniProt Q9D659).
T1 sequence (looked up): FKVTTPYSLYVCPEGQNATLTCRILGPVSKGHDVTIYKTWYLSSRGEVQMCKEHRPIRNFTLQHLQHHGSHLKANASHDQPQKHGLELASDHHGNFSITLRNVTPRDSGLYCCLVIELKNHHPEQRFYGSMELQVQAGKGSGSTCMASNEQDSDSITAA
The experiment in a line: monoclonal scFv phage ELISA, plate coated with 1 ug/ml VISTA-Fc, anti-M13-HRP. For orientation: ELISA stands for enzyme-linked immunosorbent assay.

B1: 1A12 monoclonal scFv phage (scFv, V domains shown)
VH: QMQLVESGGGLVEPGRSLRLSCTTSGFSFHDYTMYWVRQVPGKGLEWVSLISWDGTITFYADPVRGRFTISRDNSKNSLYLQMNSLRAEDTAVYYCAKEDRYDYYSGAFDIWGQGTVVTVSS
VL: QSALTQPRSVSGSPGQSVTISCTGTSSDVGGYDYVSWYQQHPGKAPKLILNDVNKRPSGVPDRFSGSKSGNTASLTISGLQPDDEADYYCSSFAGSNTLRVFGGGTKLTVLG
As to B1, the OD came out at 0.08 OD.

B2: 3C5 monoclonal scFv phage (scFv, V domains shown)
VH: QVQLVQSGAEVKKPGASVKLSCKASGYTFSSYWMHWVRQAPGQRLEWMGEINPGNGHTNYNEKFKSRVTITVDKSASTAYMELSSLRSEDTAVYYCAKDIAYYDFWSGDAFDLWGQGTMVTVSS
VL: SYELTQPLSVSVSPGQTASITCSGDKLGNKYASWYQQKPGQSPVLVIYQDNKRPSGIPERFSGSNSGNTATLTISGTQATDEADYYCQTWDRSTGVFGTGTKVTVLG
In the case of B2, the OD worked out at 0.106 OD.
